Reference: IntAct's records for PubMed 34400613

Legend:
[1] = biological target: G3BP1 (UniProt Q13283)
[2] = biological target: G3BP1 (UniProt Q13283); remark: listed apart in the source

Sequence of UniProt Q13283 (Q13283 whole entry, looked up): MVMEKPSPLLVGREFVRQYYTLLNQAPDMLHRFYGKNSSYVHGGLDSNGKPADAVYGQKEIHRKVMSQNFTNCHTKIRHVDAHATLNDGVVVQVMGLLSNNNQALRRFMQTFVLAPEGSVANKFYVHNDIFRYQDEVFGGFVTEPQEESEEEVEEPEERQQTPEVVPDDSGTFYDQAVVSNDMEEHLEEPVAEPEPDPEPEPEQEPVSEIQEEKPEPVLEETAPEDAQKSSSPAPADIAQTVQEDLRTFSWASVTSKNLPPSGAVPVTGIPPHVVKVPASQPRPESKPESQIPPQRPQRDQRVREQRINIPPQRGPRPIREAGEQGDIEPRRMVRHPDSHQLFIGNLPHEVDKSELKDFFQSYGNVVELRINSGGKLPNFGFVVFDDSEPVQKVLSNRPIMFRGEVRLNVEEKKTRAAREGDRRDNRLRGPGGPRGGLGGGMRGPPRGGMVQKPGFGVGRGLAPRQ

Nucleoprotein (SARS-CoV-2) (from UniProt P0DTC9) I15A
effect of a mutation on the interaction [1]: decreasing interaction strength

Nucleoprotein (SARS-CoV-2) (from UniProt P0DTC9) T16A
effect of a mutation on the interaction [1]: decreasing interaction strength

Nucleoprotein (SARS-CoV-2) (from UniProt P0DTC9) I15A;T16A;F17A;G18A
effect of a mutation on the interaction [2]: disrupting interaction strength

Nucleoprotein (SARS-CoV-2) (from UniProt P0DTC9) G18E
effect of a mutation on the interaction [1]: decreasing interaction strength

Nucleoprotein (SARS-CoV-2) (from UniProt P0DTC9) G18A
effect of a mutation on the interaction [2]: decreasing interaction strength
